Laboratory results reported in patent US20230303681A1 (published 2023).
Where “and” joins values, the source holds several entries; their conditions need not be identical. Equal values may be shown once.

Tests used:
human TMEM106B [1] = molecular target: T1, human TMEM106B (human, UniProt Q9NUM4 2-274); assay: FACS HEK+huTMEM, 1.0 ug/ml
T1 construct: Full-length, on transiently transfected HEK293 cells, or natively expressed on HeLa, U251 and A549 cells; also called huTMEM106B; huTMEM
Description: (§1) Purified anti-TMEM106B antibodies were evaluated for their binding affinity to various TMEM106B-expressing cell lines including HEK293 transiently transfected with human/cyno/mouse TMEM106B, as well as HeLa cells and A549 cells. Antibodies tested for this experiment were mouse IgGs purified from hybridoma supernatant. Affinity binding to cells was determined as follows. Briefly, 1x10^5 cells were aliquoted per well in 96-well round bottom plates and incubated with 50 µL of purified anti-TMEM106B antibody at various concentrations (10x dilutions starting at 10 µg/ml) in FACS buffer (PBS + 2% FBS + 1 mM EDTA). […] Sorting was performed on a iQue (Intellicyt), with sort gates drawn to exclude dead (propidium iodide +) cells. Binding data was analyzed using median fluorescent intensity (MFI) and graphed in Prism. Values presented are MFI.

human TMEM106B [2] = molecular target: T1, human TMEM106B; assay: FACS A549, 1 ug/ml
[3] = molecular target: T2, cynomolgus (cyno) TMEM106B (cynomolgus, UniProt Q9NUM4 2-274 (human entry)); assay: FACS, HEK293 transfectants;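 further: flow cytometry binding of hybridoma supernatants to HEK293 cells transiently expressing human, cyno or mouse TMEM106B, read as anti-mouse-APC median fluorescence, live cells only, 30 min on ice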
T2 construct: on transiently transfected HEK293 cells

mouse TMEM106B [4] = molecular target: T3, mouse TMEM106B (mouse, UniProt Q80X71 2-275); assay: FACS, HEK293 transfectants;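 further: flow cytometry binding of hybridoma supernatants to HEK293 cells transiently expressing human, cyno or mouse TMEM106B, read as anti-mouse-APC median fluorescence, live cells only, 30 min on ice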
T3 construct: on transiently transfected HEK293 cells, or natively expressed on mouse Neuro2a cells; also called moTMEM106B; murine TMEM106B

human TMEM106B [5] = molecular target: T1, human TMEM106B; assay: FACS, HEK293 transfectants;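 on fold over negative controls: hybridoma supernatants incubated 30 min on ice with human TMEM106B-expressing HEK293 cells, binding read as anti-mouse-APC median fluorescence on live cells, relative to secondary-antibody-only wells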;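 on fold-change over parental HEK293: flow cytometry binding of hybridoma supernatants to HEK293 cells transiently expressing human, cyno or mouse TMEM106B, read as anti-mouse-APC median fluorescence, live cells only, 30 min on ice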
human TMEM106B [6] = molecular target: T1, human TMEM106B; assay: FACS, HEK293 transfectants; remark: listed apart in the source;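 on fold over negative controls: hybridoma supernatants incubated 30 min on ice with human TMEM106B-expressing HEK293 cells, binding read as anti-mouse-APC median fluorescence on live cells, relative to secondary-antibody-only wells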;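 on fold-change over parental HEK293: flow cytometry binding of hybridoma supernatants to HEK293 cells transiently expressing human, cyno or mouse TMEM106B, read as anti-mouse-APC median fluorescence, live cells only, 30 min on ice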
GST (Pierce) = molecular target: T4, GST (Pierce) (UniProt P08515 1-218 = GST, limits assumed); assay: ELISA, coated GST;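 further: ELISA on plates coated with GST alone at 1-10 µg/ml, antibodies applied at 100-1000x dilution, bound antibody detected by peroxidase substrate colour after acid stop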
T4 construct: control for the GST part of the fusion protein; also called GST protein; Glutathione-S-transferase

human TMEM106B [7] = molecular target: T1, human TMEM106B; assay: FACS HEK+huTMEM, 0.1 ug/ml;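 further: flow cytometry binding of purified mouse IgG antibodies to HEK293 cells transiently expressing TMEM106B, read as median fluorescence intensity with propidium iodide positive dead cells gated out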
Description: as §1

human TMEM106B [8] = molecular target: T1, human TMEM106B; assay: FACS HEK+huTMEM, 0.01 ug/ml
Description: as §1

mouse TMEM106B [9] = molecular target: T3, mouse TMEM106B; assay: FACS Neuro2a;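 further: flow cytometry of cells stained with antibody or hybridoma supernatant (purified antibody at 10 µg/ml) for 1 h on ice, propidium iodide–positive dead cells gated out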
Description: (§2) All cells were cultured in either T75 or T150 flasks. […] The enzyme was quenched by addition of fresh media, and the cells were then distributed into 96-well plates for FACS analysis.
(§3) FACS analysis was performed as follows. Each cell type was aliquoted in 96-well round bottom plates (2x10^5 cells per well), washed once with FACS buffer (PBS + 2% FBS + 1 mM EDTA), and incubated with 50 µL of hybridoma supernatant or purified antibody (10 µg/ml in FACS buffer) on ice for 1 hour. […] Following this secondary incubation, the cells were again washed 2x with ice-cold FACS buffer and resuspended in a final volume of 50 µL of FACS buffer + 0.25 µl/well propidium iodide (Fisher Scientific # BDB556463). Analysis was performed on a FACSCanto system (BD Biosciences) or iQue (Intellicyt), with sort gates drawn to exclude dead (i.e., propidium iodide positive) cells.
(§4) Data is presented as mean fluorescence intensity (MFI).

human TMEM106B [10] = molecular target: T1, human TMEM106B; assay: FACS HeLa;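 further: flow cytometry of cells incubated with hybridoma supernatant or purified antibody at 10 µg/ml for 1 h on ice, propidium iodide–positive dead cells gated out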
human TMEM106B [11] = molecular target: T1, human TMEM106B; assay: FACS A549
human TMEM106B [12] = molecular target: T1, human TMEM106B; assay: FACS A549, 10 ug/ml
human TMEM106B [13] = molecular target: T1, human TMEM106B; assay: FACS U251;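 further: flow cytometry of cells exposed to antibody (purified at 10 µg/mL, or hybridoma supernatant) for 1 h on ice, with propidium iodide-positive dead cells gated out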
Description: as §2, §3, §4

human TMEM106B [14] = molecular target: T1, human TMEM106B; assay: FACS HEK+huTMEM, 10 ug/ml;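 further: purified mouse IgG antibodies at 10 µg/ml bound to HEK293 cells transiently expressing human TMEM106B, measured by flow cytometry as median fluorescence intensity of propidium iodide negative live cells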
[15] = molecular target: T5, GST-fusion human TMEM106B truncated (human); assay: array SPR, Ab immobilised;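 further: antibodies amine-coupled on an MX-96 chip, antigen flowed at 500 nM top concentration in 5-fold serial dilutions, GST alone run as nonspecific-binding control, duplicate measurements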
T5 construct: also called GST-TMEM106B-truncated protein; GST-TMEM106B (truncated)
Description: Binding kinetic characterization of the purified antibodies was performed by Carterra using a proprietary array SPR instrument (MX-96) as follows. Briefly, antibodies were prepared by diluting to 5 µg/ml in 10 mM Acetate, pH 4.5 (Carterra), at 150 µL/well and then made an additional dilution at 1:10 from there by titrating 11 µl into 100 µL. […] The chip was activated with 18 mM EDC (Sigma Bioxtra) and 4.5 mM S-NHS (Thermo Fisher) diluted in 100 mM MES, pH 5.5, for 7 minutes, and then antibodies were coupled for 10 minutes at 45 µL/minute. After coupling, the chip was returned to the MX-96 and quenched for 7 minutes using 1 M Ethanolamine pH 8.5 (Carterra).
Printed antibodies were profiled for their ability to bind GST-TMEM106B (truncated) protein (described above). Briefly, GST-TMEM106B (truncated) antigen was diluted to 18 µg/ml (500 nM of 36 kDa fusion protein) by mixing 2.7 µL of 2.0 mg/ml antigen into 298 µL Running buffer (HBS-EP+, Teknova with 1 mg/ml BSA, Sigma), and titrated 50 µl into 200 µl for 5-fold serial dilutions. In addition, binding to GST (Pierce) was assayed under the same conditions to determine the extent of any nonspecific binding of the anti-TMEM106B antibodies to GST portion of the TMEM106B-GST fusion protein. Duplicate measurements for each anti-TMEM106B antibody were taken to ensure reproducibility.

B1: anti-TMEM106B antibody TM-12 (antibody, V domains shown)
VH: EVQLQQSGAELMRPGASVKLSCTASGFNIQDYYMYWVKQRPEQGLEWIGRIDPEDGDAEYAPKFQGKATMTADTSSNTAYLQLSSLTSEDTAVYYCSTRVIYDGYYRTMDCWGQGTSVTVSS
VL: DVLMTQIPLSLPVSLGDQASISCRSSQTIVHSNGNTYLEWYLKKPGQSPKLLIDKISNRFSGVPDRFSGSGSGTDFTLKISRVEAEDLGVYYCFQGSHVPYTFGGGTKLEIK
In the case of B1, the MFI (human TMEM106B [1]) is reported as 77800, the MFI (human TMEM106B [2]) is reported as 3150 and the “fold-change over parental HEK293” value [3] is reported as 44.1 fold. The “fold-change over parental HEK293” value (mouse TMEM106B [4]) was 32.7 fold, the “fold-change over parental HEK293” value (human TMEM106B [5]) was 25.9 fold and the “fold over negative controls” value (human TMEM106B [6]) was > 2 fold. For the same binder, the binding result (GST (Pierce)) was “no binding”, the MFI (human TMEM106B [7]) was 19700 and the MFI (human TMEM106B [8]) was 3340. The MFI (mouse TMEM106B [9]) was 3040, the MFI (human TMEM106B [10]) was 2660 and the MFI (human TMEM106B [11]) was 1940. The MFI (human TMEM106B [12]) was 4950, the MFI (human TMEM106B [13]) was 1330 and the MFI (human TMEM106B [14]) was 75300. For the same binder, the kon [15] was 21000 M⁻¹ s⁻¹ and 29000 M⁻¹ s⁻¹.

B2: anti-TMEM106B antibody TM-32 (antibody, V domains shown)
VH: EVQLQQSGAELVRPGASVRLSCIASGFNIKDYYMYWVKQRPEQGLEWIGRIDPEDGDTEYVPKFQGKATMTADTSSNTAYLQLSSLTSEDIGVYYCTTRTWDLYYAVDNWGQGTSVTVSS
VL: DVLMTQTPLSLPVSLGDQASISCRSSQNIVHSNGNTYLEWYLQKPGQSPKLLIDKVSNRFSGVPDRFSGSGSGTDFTLKISRVEAEDLGIYYCFQGSHVPFTFGSGTKLEIK
In the case of B2, the MFI (human TMEM106B [1]) is reported as 63300, the MFI (human TMEM106B [2]) is reported as 3930 and the “fold over negative controls” value (human TMEM106B [6]) is reported as > 2 fold. The binding result (GST (Pierce)) was “no binding”, the MFI (human TMEM106B [7]) was 20300 and the MFI (human TMEM106B [8]) was 4100. For the same binder, the MFI (human TMEM106B [12]) was 6100, the MFI (human TMEM106B [14]) was 61100 and the koff [15] was 8.6e-05 s⁻¹ and 3.5e-05 s⁻¹. For the same binder, the kon [15] was 29000 M⁻¹ s⁻¹ and 40000 M⁻¹ s⁻¹.

B3: anti-TMEM106B antibody TM-30 (antibody, V domains shown)
VH: QVQLQQSGPELVKPGASVKLSCKASDNTFTNYDVNWVRQRPGQGLEWIGWIYPRDGTTIYNEKFKGRATLTVDTSSSTAYMELHSLTSEDSAVFFCARTLPQAMDYWGQGTSVTVSS
VL: DVLMTQSPLSLPVSLGDQVSISCRSSQTIVHRNGNTYLEWYLQKPGQSPKLLIYKVSNRFSGVPDRFSGSGSGTDFTLKISRVEAEDLGVYYCFQGSHLPWTFGGGTKLEIK
notes: mouse IgG from hybridoma
For B3, the MFI (human TMEM106B [1]) was 63500, the MFI (human TMEM106B [2]) was 3030 and the “fold over negative controls” value (human TMEM106B [6]) was > 2 fold. For the same binder, the MFI (human TMEM106B [7]) was 18400, the MFI (human TMEM106B [8]) was 3070 and the MFI (human TMEM106B [12]) was 4040. For the same binder, the MFI (human TMEM106B [14]) was 61500.

B4: anti-TMEM106B antibody TM-10 (antibody, V domains shown)
VH: QVQLQQSGAELVKPGASVKISCKGSGYAFSSYWMNWVKQRPGKGLEWIGQIYPGDGDTNYNGKFKGKATLTADKSSTTAYIHLSSLTSEDSAVYFCARWGHYDEAMDDWGQGTSVTVSS
VL: DVVMTQTPLSLPVSLGDQASISCRSSQSLVHSNGKTYLHWYVQKPGQSPKLLIYKISNRFSGVPDRFSGSGSGTDFTLKISRVEAEDLGVYFCSQITHVPWTFGGGTKLESK
For B4, the MFI (human TMEM106B [1]) was 44400, the MFI (human TMEM106B [2]) was 663 and the “fold-change over parental HEK293” value [3] was 65.9 fold. For the same binder, the “fold-change over parental HEK293” value (mouse TMEM106B [4]) was 45.9 fold, the “fold-change over parental HEK293” value (human TMEM106B [5]) was 37.1 fold and the “fold over negative controls” value (human TMEM106B [6]) was > 2 fold. For the same binder, the binding result (GST (Pierce)) was “no binding”, the MFI (human TMEM106B [7]) was 21000 and the MFI (human TMEM106B [8]) was 3360. It also gave an MFI (mouse TMEM106B [9]) of 604, an MFI (human TMEM106B [10]) of 596 and an MFI (human TMEM106B [11]) of 823. The MFI (human TMEM106B [12]) was 1090, the MFI (human TMEM106B [13]) was 328 and the MFI (human TMEM106B [14]) was 36500. The Kd [15] was 17 nM and 22 nM, the koff [15] was 0.00054 s⁻¹ and 0.0006 s⁻¹ and the kon [15] was 32000 M⁻¹ s⁻¹ and 28000 M⁻¹ s⁻¹.

B5: anti-TMEM106B antibody TM-44 (antibody, V domains shown)
VH: EVQLVESGGGLVKPGGSLKLSCAASGFTFSDYGMHWVRQAPEKGLEWVAYISSGSSTIYYADTVKGRFTISRDNAKNTLFLQMTSLRSEDTAMYYCARNYGSPYAMDYWGQGTSVTVSS
VL: not shown
notes: mouse IgG from hybridoma
B5 was tested, and the MFI (human TMEM106B [1]) was 337, the MFI (human TMEM106B [2]) was 404 and the MFI (human TMEM106B [7]) was 309. The MFI (human TMEM106B [8]) was 300, the MFI (mouse TMEM106B [9]) was 202 and the MFI (human TMEM106B [10]) was 168. It also gave an MFI (human TMEM106B [11]) of 392, an MFI (human TMEM106B [12]) of 466 and an MFI (human TMEM106B [13]) of 522. For the same binder, the MFI (human TMEM106B [14]) was 512.
